Experimental data reported in ChEMBL document CHEMBL1130869, “Peptide-based inhibitors of the hepatitis C virus serine protease” (Bioorg Med Chem Lett, 1998).

Substrate: CC[C@H](C)[C@H](NC(=O)[C@H](CC(=O)O)NC(=O)[C@@H](N)CC(=O)O)C(=O)N[C@H](C(=O)N1CCC[C@H]1C(=O)N[C@@H](CS)C(=O)O)C(C)C
Assay: Km against NS3-4Apep protease determined by non-linear regression analysis of the velocity data
Format: protein-complex assay
Conditions: Hepacivirus hominis

B1: Hepatitis C virus serine protease, NS3/NS4A (Hepatitis C virus), D2K2A8+A3EZI9 (protein)
chain 1: STWVLLGGVLAALAAYCLSVGCVVIVGYIELGGKPALVPDKEVCYQQYDEMEEC
chain 2: APITAYAQQTRGLLGCIITSLTGRDKNQVEGEVQIVSTAAQTFLATCINGVCWTVYHGAGTRTIASSKGPVIQMYTNVDQDLVGWPAPQGARSLTPCTCGSSDLYLVTRHADVIPVRRRGDGRGSLLSPRPISYLKGSSGGPLLCPAGHAVGIFRAAVCTRGVAKAVDFIPVEGLETTMRSPVFSDNSSPPAVPQSYQVAHLHAPTGSGKSTKVPAAYAAQGYKVLVLNPSVAATLGFGAYMSKAHGIDPNIRTGVRTITTGSPITYSTYGKFLADGGCSGGAYDIIICDECHSTDATSILGIGTVLDQAETAGARLTVLATATPPGSVTVPHPNIEEVALSTTGEIPFYGKAIPLEAIKGGRHLIFCHSKKKCDELAAKLVALGVNAVAYYRGLDVSVIPASGDVVVVATDALMTGFTGDFDSVIDCNTCVTQTVDFSLDPTFTIETTTLPQDAVSRTQRRGRTGRGKPGIYRFVTPGERPSGMFDSSVLCECYDAGCAWYELTPAETTVRLRAYMNTPGLPVCQDHLEFWEGVFTGLTHIDAHFLSQTKQSGENLPYLVAYQATVCARAQAPPPSWDQMWKCLIRLKPTLHGPTPLLYRLGAVQNEITLTHPITKYIMTCMSADLEVVT
Protein B1 has a Km of 37 µM.
